Target: HLA-A*24 (human)
Assay: UV-ligand exchange, anti-b2m ELISA

Row | Binder | peptide exchange yield [%]
1 | TYTTVPRVAF [SEQ ID NO: 172 peptide …] | > 75
2 | VYPWLGALL [SEQ ID NO: 177 peptide …] | > 75
3 | IFIEVFSHF [SEQ ID NO: 178 peptide …] | 50 to 75
4 | MYDSYWRQF [SEQ ID NO: 179 peptide …] | > 75
5 | IYDDSFIRPVTF [SEQ ID NO: 180 peptide …] | 50 to 75
6 | LYLDIINLF [SEQ ID NO: 181 peptide …] | > 75
7 | IYQLDTASI [SEQ ID NO: 182 peptide …] | 50 to 75
8 | VFTSTARAF [SEQ ID NO: 183 peptide …] | 50 to 75
9 | VFQNFPLLF [SEQ ID NO: 184 peptide …] | > 75
10 | IYKVGAPTI [SEQ ID NO: 185 peptide …] | 50 to 75
11 | IFPQFLYQF [SEQ ID NO: 186 peptide …] | > 75
12 | TYLRDQHFL [SEQ ID NO: 187 peptide …] | > 75
13 | RYFKGLVF [SEQ ID NO: 188 peptide RYFKGLVF] | 50 to 75
14 | WYVNGVNYF [SEQ ID NO: 189 peptide …] | 20 to 49
15 | GFFIFNERF [SEQ ID NO: 190 peptide …] | 50 to 75
16 | VFKASKITF [SEQ ID NO: 191 peptide …] | 50 to 75
17 | SYALLTYMI [SEQ ID NO: 192 peptide …] | > 75
18 | RFHPTPLLL [SEQ ID NO: 193 peptide …] | > 75
19 | EFGSLHLEFL [SEQ ID NO: 194 peptide …] | < 20
20 | LYLDKATLI [SEQ ID NO: 198 peptide …] | 50 to 75
21 | FYSRLLQKF [SEQ ID NO: 203 peptide …] | 50 to 75
22 | VHIPEVYLI [SEQ ID NO: 205 peptide …] | 50 to 75
23 | EYQENFLSF [SEQ ID NO: 206 peptide …] | 50 to 75
24 | TYTQDFNKF [SEQ ID NO: 208 peptide …] | 50 to 75
25 | IYTMIYRNL [SEQ ID NO: 210 peptide …] | > 75

Row | Binder | peptide exchange yield [%]
26 | YYLEVGKTLI [SEQ ID NO: 211 peptide …] | > 75
27 | LYLKLWNLI [SEQ ID NO: 214 peptide …] | 50 to 75
28 | YFDKVVTL [SEQ ID NO: 215 peptide YFDKVVTL] | 20 to 49
29 | QYSSVFKSL [SEQ ID NO: 216 peptide …] | > 75
30 | FFPPTRQMGLLF [SEQ ID NO: 217 peptide …] | > 75
31 | EYPLVINTL [SEQ ID NO: 219 peptide …] | 50 to 75
32 | RYSTGLAGNLL [SEQ ID NO: 221 peptide …] | 50 to 75
33 | KYIPYKYVI [SEQ ID NO: 223 peptide …] | 50 to 75
34 | QYLENLEKL [SEQ ID NO: 224 peptide …] | 50 to 75
35 | YYVYIMNHL [SEQ ID NO: 225 peptide …] | 50 to 75
36 | VYRDETGELF [SEQ ID NO: 226 peptide …] | 50 to 75
37 | IFLDYEAGTLSF [SEQ ID NO: 227 peptide …] | > 75
38 | KYTSWYVAL [SEQ ID NO: 228 peptide …] | > 75
39 | KYMVYPQTF [SEQ ID NO: 267 peptide …] | > 75
40 | LYHDIFSRL [SEQ ID NO: 271 peptide …] | > 75
41 | QYLQDAYSF [SEQ ID NO: 272 peptide …] | > 75
42 | TYIKPISKL [SEQ ID NO: 273 peptide …] | 50 to 75
43 | AYLHSHALI [SEQ ID NO: 274 peptide …] | > 75
44 | EYINQGDLHEF [SEQ ID NO: 275 peptide …] | 50 to 75
45 | VYGFQWRHF [SEQ ID NO: 276 peptide …] | > 75
46 | RYISDQLFTNF [SEQ ID NO: 278 peptide …] | > 75
47 | TYIESASEL [SEQ ID NO: 279 peptide …] | 50 to 75
48 | RYPDNLKHLYL [SEQ ID NO: 280 peptide …] | > 75
49 | KFVDSTFYL [SEQ ID NO: 282 peptide …] | > 75
50 | TYGDAGLTYTF [SEQ ID NO: 283 peptide …] | 50 to 75

Row | Binder | peptide exchange yield [%]
51 | RYLNKAFHI [SEQ ID NO: 284 peptide …] | 50 to 75
52 | RYPDNLKHL [SEQ ID NO: 286 peptide …] | 20 to 49
53 | VYVSDIQEL [SEQ ID NO: 288 peptide …] | 50 to 75
54 | KYPVEWAKF [SEQ ID NO: 289 peptide …] | > 75
55 | HYSQELSLLYL [SEQ ID NO: 158 peptide …] | > 75
56 | LYNKGFIYL [SEQ ID NO: 159 peptide …] | > 75
57 | VYTLDIPVL [SEQ ID NO: 160 peptide …] | > 75
58 | IYLVSIPEL [SEQ ID NO: 161 peptide …] | > 75
59 | VFTRVSSFL [SEQ ID NO: 162 peptide …] | 50 to 75
60 | DYLKGLASF [SEQ ID NO: 163 peptide …] | > 75
61 | KFSSFSLFF [SEQ ID NO: 164 peptide …] | 50 to 75
62 | DYTTWTALL [SEQ ID NO: 165 peptide …] | > 75
63 | YYVESGKLF [SEQ ID NO: 166 peptide …] | > 75
64 | NYINRILKL [SEQ ID NO: 167 peptide …] | > 75
65 | KYQDILETI [SEQ ID NO: 168 peptide …] | > 75
66 | AYTLIAPNI [SEQ ID NO: 169 peptide …] | 50 to 75
67 | VYEDQVGKF [SEQ ID NO: 170 peptide …] | 20 to 49
68 | LFIPSSKLLFL [SEQ ID NO: 171 peptide …] | 50 to 75
69 | IYSWILDHF [SEQ ID NO: 173 peptide …] | > 75
70 | VYVGGGQIIHL [SEQ ID NO: 174 peptide …] | 50 to 75
71 | YYEVHKELF [SEQ ID NO: 175 peptide …] | > 75
72 | EYNQWFTKL [SEQ ID NO: 176 peptide …] | 50 to 75
73 | TYSVSFPMF [SEQ ID NO: 195 peptide …] | > 75
74 | LYIDRPLPYL [SEQ ID NO: 196 peptide …] | 50 to 75
75 | EYSLFPGQVVI [SEQ ID NO: 197 peptide …] | 50 to 75

Reference: US20170189504A1
